Source: patent publication US20250115669A1, “FGFR1/KLB Targeting Agonistic Antigen-Binding Proteins and Conjugates Thereof with GLP-1R Agonistic Peptides” (SANOFI, priority 2020, published 2025)
Marks after values point to notes of the source that are not given here.

Experiments:
[1] = Size-exclusion chromatography (SEC); format: physicochemical
Method: Analytical SEC was performed using a BioSECcurity instrument (PSS Polymer) with an AdvanceBio 300 column (4.6 mm×300 mm) and AdvanceBio 300 guard column (Agilent Technologies) at room temperature. The analysis was run at a flow rate of 0.5 mL/min using 2× concentrated D-PBS buffer (Thermo Fisher Scientific) with detection at 280 nm. 10 μL of protein sample (at 1 mg/mL) were applied onto the column. Data evaluation was performed using WinGPC software v8.1 (PSS Polymer). For estimation of the molecular weight, the SEC column was calibrated with the AdvanceBio SEC 300 Å Protein Standard (Agilent Technologies).

[2] = Hydrophobic interaction chromatography (HIC); format: physicochemical
Method: The analysis was run at a flow rate of 1 mL/min with detection at 280 nm. 5 μg of undiluted protein sample were applied onto the column. Gradient elution was from 15% B to 85% B in 7 min followed by 1 min to 100% B, then 1 min to 15% B and then 3 minutes equilibration at 15% B. Buffer A was composed of 1.5 mol/L ammonium sulfate, 25 mmol/L sodium phosphate pH 7.0. Buffer B was composed of 25 mmol/L sodium phosphate pH 7.0. Data evaluation was performed either using LabSolutions software v5.85 (Shimadzu) or Chromeleon 7 software (Thermo Fisher Scientific).

[3] = Capillary isoelectric focusing (cIEF); format: physicochemical
Method: Charge heterogeneity of the antibody samples was determined by capillary isoelectric focusing (cIEF) using a Maurice C device (Protein Simple). The samples were prepared by the cIEF protocol given by the manufacturer with an ampholyte mix 3-10 (Protein Simple) and peptide pl markers of 5.85 and 9.0 (Protein Simple). cIEF runs were analyzed using Compass Software v2.1.0 (Protein Simple).

[4] = Capillary gel electrophoresis (cGE); format: physicochemical
Method: Capillary Gel Electrophoresis (cGE) Purity and size heterogeneity of the samples was determined by capillary gel electrophoresis (cGE) using a CES18000 instrument (SCIEX) equipped with a pre-assembled fused silica capillary (50 μm×300 mm, SCIEX). Protein samples at 1 mg/ml were prepared using the IgG purity heterogeneity Kit (SCIEX) under non-reducing conditions according to the manufacturer's specifications. Samples were electrophoretically separated for 35 minutes at 25° C. and the absorbance at 220 nm was recorded by a photo diode array (PDA) detector. The data were analyzed using 32 Karat Software (SCIEX).

[5] = In vivo PK in transgenic humanized FcRn mice (Tg32); conditions: 0.3 mg/kg single IV, plasma; for t½: noncompartmental analysis
Method: In vivo PK studies were conducted in transgenic humanized FcRn mice (Tg32). For these studies, no GLP compliance was claimed.

| Substance | SEC % HMW ([1]; pH 5, 40° C., d 21) [%] | SEC % LMW ([1]; pH 5, 40° C., d 21) [%] | SEC % HMW ([1]; pH 5, d 0) [%] | SEC % LMW ([1]; pH 5, d 0) [%] | SEC % HMW ([1]; pH 6, 40° C., d 21) [%] | SEC % LMW ([1]; pH 6, 40° C., d 21) [%] | SEC % HMW ([1]; pH 6, d 0) [%] | SEC % LMW ([1]; pH 6, d 0) [%] | SEC % HMW ([1]; pH 8, 40° C., d 21) [%] | SEC % LMW ([1]; pH 8, 40° C., d 21) [%] | SEC % HMW ([1]; pH 8, d 0) [%] | SEC % LMW ([1]; pH 8, d 0) [%] | Hydrophobic variance HIC Number of peaks [2] | HIC Number of peaks ([2]; pH 5, 40° C., d 21) | HIC Number of peaks ([2]; pH 5, d 0) | HIC Number of peaks ([2]; pH 6, 40° C., d 21) | HIC Number of peaks ([2]; pH 6, d 0) | HIC Number of peaks ([2]; pH 8, 40° C., d 21) | HIC Number of peaks ([2]; pH 8, d 0) | Charge homogeneity cIEF % main peak [3] [%] | other results |
| --- | --- | --- | --- | --- | --- | --- | --- | --- | --- | --- | --- | --- | --- | --- | --- | --- | --- | --- | --- | --- | --- |
| Ab0335: IgG4 PE; 16H7 VL (N25S, D49S, D50A, D91E, N93E); 16H7 VH (M34V, I83T, D109E); HC SEQ ID NO: 39, LC SEQ ID NO: 46 | 0 | 0 | 1 | 0 | 0 | 0 | 1 | 0 | 5 | 1 | 2 | 0 | 1 | 1 | 1 | 1 | 1 | 1 | 1 | 71.4 | Charge homogeneity cIEF Number of peaks [3]: 4; Charge homogeneity cIEF pI [3]: 7.1; cIEF % Main peak ([3]; pH 5, 40° C., d 21): 59%; cIEF Number of peaks ([3]; pH 5, 40° C., d 21): 4; cIEF % Main peak ([3]; pH 5, d 0): 70%; cIEF Number of peaks ([3]; pH 5, d 0): 5; cIEF % Main peak ([3]; pH 6, 40° C., d 21): 59%; cIEF Number of peaks ([3]; pH 6, 40° C., d 21): 4; cIEF % Main peak ([3]; pH 6, d 0): 71%; cIEF Number of peaks ([3]; pH 6, d 0): 4; cIEF % Main peak ([3]; pH 8, 40° C., d 21): 12%; cIEF Number of peaks ([3]; pH 8, 40° C., d 21): 5; cIEF % Main peak ([3]; pH 8, d 0): 68%; cIEF Number of peaks ([3]; pH 8, d 0): 5; Homogeneity cGE % Monomer [4]: 79%; t½ calculated with compartment model ([5]; compartment model): 300* h |
| Ab0351: IgG4 PE; 16H7 VL (N25S, D49E, D50E, D91E, N93E); 16H7 VH (M34V, I83T, D109E); HC SEQ ID NO: 40, LC SEQ ID NO: 47 | 1 | 0 | 2 | 0 | 1 | 0 | 0 | 0 | 2 | 1 | 1 | 0 | 1 | 1 | 1 | 1 | 1 | 1 | 1 | 72.6 | Charge homogeneity cIEF Number of peaks [3]: 4; Charge homogeneity cIEF pI [3]: 6.7; cIEF % Main peak ([3]; pH 5, 40° C., d 21): 59%; cIEF Number of peaks ([3]; pH 5, 40° C., d 21): 5; cIEF % Main peak ([3]; pH 5, d 0): 72%; cIEF Number of peaks ([3]; pH 5, d 0): 4; cIEF % Main peak ([3]; pH 6, 40° C., d 21): 58%; cIEF Number of peaks ([3]; pH 6, 40° C., d 21): 4; cIEF % Main peak ([3]; pH 6, d 0): 73%; cIEF Number of peaks ([3]; pH 6, d 0): 4; cIEF % Main peak ([3]; pH 8, 40° C., d 21): 15%; cIEF Number of peaks ([3]; pH 8, 40° C., d 21): 5; cIEF % Main peak ([3]; pH 8, d 0): 71%; cIEF Number of peaks ([3]; pH 8, d 0): 4; Homogeneity cGE % Monomer [4]: 83%; t½ [5]: 14.2 days |
| Ab0429: IgG1 NNAS; 16H7 VL (N25S, D49S, D50A, D91E, N93E); 16H7 VH (M34V, I83T, D109E); HC SEQ ID NO: 42, LC SEQ ID NO: 49 | 1 | 2 | 2 | 0 | 0 | 1 | 0 | 0 | 1 | 3 | 2 | 0 | 1 | 1 | 1 | 1 | 1 | 1 | 1 | 21.3 | Charge homogeneity cIEF Number of peaks [3]: 9; Charge homogeneity cIEF pI [3]: 7.5-8.5; cIEF % Main peak ([3]; pH 5, 40° C., d 21): 20%; cIEF Number of peaks ([3]; pH 5, 40° C., d 21): 9; cIEF % Main peak ([3]; pH 5, d 0): 21%; cIEF Number of peaks ([3]; pH 5, d 0): 8; cIEF % Main peak ([3]; pH 6, 40° C., d 21): 23%; cIEF Number of peaks ([3]; pH 6, 40° C., d 21): 8; cIEF % Main peak ([3]; pH 6, d 0): 21%; cIEF Number of peaks ([3]; pH 6, d 0): 9; cIEF % Main peak ([3]; pH 8, 40° C., d 21): 9.7%; cIEF Number of peaks ([3]; pH 8, 40° C., d 21): 10; cIEF % Main peak ([3]; pH 8, d 0): 21%; cIEF Number of peaks ([3]; pH 8, d 0): 8; Homogeneity cGE % Monomer [4]: 66%; t½ [5]: 13.9 days |
| 16H7: anti FGFR1c/KLB monoclonal antibody of WO 2011/071783, IgG2 backbone; HC SEQ ID NO: 1, LC SEQ ID NO: 2 [Ab 16H7] |  |  |  |  |  |  |  |  |  |  |  |  |  |  |  |  |  |  |  |  | t½ [5]: 13 days |
| Ab0331: IgG4 PE; 16H7 VL (N25S, D49S, D50E, D91E, N93E); 16H7 VH (M34V, I83T, D109E); HC SEQ ID NO: 38, LC SEQ ID NO: 45 | 1 | 0 | 1 | 0 | 0 | 0 | 1 | 0 | 1 | 1 | 2 | 0 | 1 | 1 | 1 | 1 | 1 | 1 | 1 | 73 | Charge homogeneity cIEF Number of peaks [3]: 5; Charge homogeneity cIEF pI [3]: 6.9; cIEF % Main peak ([3]; pH 5, 40° C., d 21): 59%; cIEF Number of peaks ([3]; pH 5, 40° C., d 21): 5; cIEF % Main peak ([3]; pH 5, d 0): 73%; cIEF Number of peaks ([3]; pH 5, d 0): 5; cIEF % Main peak ([3]; pH 6, 40° C., d 21): 57%; cIEF Number of peaks ([3]; pH 6, 40° C., d 21): 4; cIEF % Main peak ([3]; pH 6, d 0): 73%; cIEF Number of peaks ([3]; pH 6, d 0): 5; cIEF % Main peak ([3]; pH 8, 40° C., d 21): 14%; cIEF Number of peaks ([3]; pH 8, 40° C., d 21): 6; cIEF % Main peak ([3]; pH 8, d 0): 72%; cIEF Number of peaks ([3]; pH 8, d 0): 5; Homogeneity cGE % Monomer [4]: 77%; t½ [5]: 14.9 days |
| Ab0430: IgG1 NNAS; 16H7 VL (N25S, D49E, D50E, D91E, N93E); 16H7 VH (M34V, I83T, D109E); HC SEQ ID NO: 43, LC SEQ ID NO: 50 | 1 | 2 | 1 | 0 | 0 | 2 | 1 | 0 | 1 | 4 | 2 | 0 | 1 | 1 | 1 | 1 | 1 | 1 | 1 | 21.7 | Charge homogeneity cIEF Number of peaks [3]: 8; Charge homogeneity cIEF pI [3]: 7.2-7.9; cIEF % Main peak ([3]; pH 5, 40° C., d 21): 21%; cIEF Number of peaks ([3]; pH 5, 40° C., d 21): 8; cIEF % Main peak ([3]; pH 5, d 0): 22%; cIEF Number of peaks ([3]; pH 5, d 0): 9; cIEF % Main peak ([3]; pH 6, 40° C., d 21): 20%; cIEF Number of peaks ([3]; pH 6, 40° C., d 21): 9; cIEF % Main peak ([3]; pH 6, d 0): 22%; cIEF Number of peaks ([3]; pH 6, d 0): 8; cIEF % Main peak ([3]; pH 8, 40° C., d 21): 4.4%; cIEF Number of peaks ([3]; pH 8, 40° C., d 21): 11; cIEF % Main peak ([3]; pH 8, d 0): 22%; cIEF Number of peaks ([3]; pH 8, d 0): 9; Homogeneity cGE % Monomer [4]: 62%; t½ [5]: 15.7 days |
| Ab0428: IgG1 NNAS; 16H7 VL (N25S, D49S, D50E, D91E, N93E); 16H7 VH (M34V, I83T, D109E); HC SEQ ID NO: 41, LC SEQ ID NO: 48 | 1 | 2 | 2 | 0 | 0 | 2 | 1 | 0 | 1 | 3 | 1 | 0 | 1 | 1 | 1 | 1 | 1 | 1 | 1 | 20.4 | Charge homogeneity cIEF Number of peaks [3]: 8; Charge homogeneity cIEF pI [3]: 7.3-8.0; cIEF % Main peak ([3]; pH 5, 40° C., d 21): 15%; cIEF Number of peaks ([3]; pH 5, 40° C., d 21): 8; cIEF % Main peak ([3]; pH 5, d 0): 21%; cIEF Number of peaks ([3]; pH 5, d 0): 8; cIEF % Main peak ([3]; pH 6, 40° C., d 21): 21%; cIEF Number of peaks ([3]; pH 6, 40° C., d 21): 8; cIEF % Main peak ([3]; pH 6, d 0): 20%; cIEF Number of peaks ([3]; pH 6, d 0): 8; cIEF % Main peak ([3]; pH 8, 40° C., d 21): 11%; cIEF Number of peaks ([3]; pH 8, 40° C., d 21): 9; cIEF % Main peak ([3]; pH 8, d 0): 21%; cIEF Number of peaks ([3]; pH 8, d 0): 9; Homogeneity cGE % Monomer [4]: 71%; t½ [5]: 13.8 days |
